The values below come from patent US20120100561A1 (published 2012).

The target in the assay is T1, Flag-PKN3 wt (N-terminal Flag epitope-tagged full-length kinase active human PKN3) (human, UniProt Q6P5Z2 1-889).
T1 construct: Expressed from pcDNA3 in HEK293T or PC3 cells and pulled down with anti-Flag M2 resin; The kinase-dead version carries K588R; also called Flag-tagged PKN3; kinase-active form of PKN3
Kind of assay: anti-Flag M2 co-immunoprecipitation from transfected HEK293T cells, Western blot. As to the method: Thus, PKN3, RhoC and PDK1 form a ternary complex (“PPRC complex.”)
For immunoprecipitations with Flag (FIG. 4B), HEK293T cells (5×10⁵ cells/10-cm tissue culture dish) were either singly transfected or cotransfected with the indicated plasmids (Flag-PKN3 wt [full-length kinase active], Flag-PKN3 kd [kinase-dead PKN3], Myc-RhoA, Myc-RhoB or Myc-RhoC) by FUGENE® transfection reagent. After 6 hours of incubation at 37° C. in a 5% CO₂ incubator, cells were washed twice in serum-free Dulbecco's modified Eagle's medium (DMEM), and fresh medium (DMEM, 10% fetal bovine serum) was added to the cells for a further 48 h of incubation. Cells were washed with phosphate-buffered saline (PBS) and lysed in 0.5 ml of lysis buffer (50 mM Tris-HCl [pH 7.5], 150 mM NaCl, 10 mM β-glycerolphosphate, 10% glycerol, 1% Triton X-100, 1 mM Na₃VO₄, 1 mM NaF, and protease inhibitors [Roche Molecular Biochemicals]) for 30 minutes on ice. […] The beads were then washed three times with TBS buffer (50 mM Tris-HCl [pH 7.5], 150 mM NaCl), and bound proteins were eluted with TBS buffer containing 10% glycerol, 1 mM DTT and 200 μg of Flag peptide (Sigma)/ml. The bound products were visualized by Western blot analysis (FIG. 4).
Background: In western blotting, separated proteins are transferred to a membrane and probed.

T1 sequence (Q6P5Z2 other isoform, or with tags, fused parts or gaps limits assumed): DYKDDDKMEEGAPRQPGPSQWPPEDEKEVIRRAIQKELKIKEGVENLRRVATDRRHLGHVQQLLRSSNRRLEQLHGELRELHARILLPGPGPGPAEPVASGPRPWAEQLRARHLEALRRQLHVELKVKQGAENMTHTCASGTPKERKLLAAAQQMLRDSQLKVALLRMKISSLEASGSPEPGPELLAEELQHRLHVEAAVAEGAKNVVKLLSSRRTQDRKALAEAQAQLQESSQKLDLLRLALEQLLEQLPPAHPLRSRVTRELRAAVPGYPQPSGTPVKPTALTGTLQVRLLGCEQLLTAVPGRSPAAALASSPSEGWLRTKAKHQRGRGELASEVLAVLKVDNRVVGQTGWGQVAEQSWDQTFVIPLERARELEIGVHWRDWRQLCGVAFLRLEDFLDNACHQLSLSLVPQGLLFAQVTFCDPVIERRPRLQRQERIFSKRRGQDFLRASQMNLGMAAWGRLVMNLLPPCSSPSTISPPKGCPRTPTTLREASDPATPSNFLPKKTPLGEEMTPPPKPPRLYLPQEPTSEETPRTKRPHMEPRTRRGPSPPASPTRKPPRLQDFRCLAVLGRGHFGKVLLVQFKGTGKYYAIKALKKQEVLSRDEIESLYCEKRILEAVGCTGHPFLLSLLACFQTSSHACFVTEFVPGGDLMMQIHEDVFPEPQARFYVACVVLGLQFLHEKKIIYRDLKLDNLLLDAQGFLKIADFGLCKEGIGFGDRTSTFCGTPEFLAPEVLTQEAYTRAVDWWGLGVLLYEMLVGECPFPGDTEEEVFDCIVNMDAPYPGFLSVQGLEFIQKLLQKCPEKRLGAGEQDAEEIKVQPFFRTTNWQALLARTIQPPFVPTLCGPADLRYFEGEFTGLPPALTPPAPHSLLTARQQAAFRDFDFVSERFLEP

B1: phosphoinositide-dependent kinase-1 (PDK1) (enzyme, UniProt O15530 1-556, looked up)
chain: MARTTSQLYDAVPIQSSVVLCSCPSPSMVRTQTESSTPPGIPGGSRQGPAMDGTAAEPRPGAGSLQHAQPPPQPRKKRPEDFKFGKILGEGSFSTVVLARELATSREYAIKILEKRHIIKENKVPYVTRERDVMSRLDHPFFVKLYFTFQDDEKLYFGLSYAKNGELLKYIRKIGSFDETCTRFYTAEIVSALEYLHGKGIIHRDLKPENILLNEDMHIQITDFGTAKVLSPESKQARANSFVGTAQYVSPELLTEKSACKSSDLWALGCIIYQLVAGLPPFRAGNEYLIFQKIIKLEYDFPEKFFPKARDLVEKLLVLDATKRLGCEEMEGYGPLKAHPFFESVTWENLHQQTPPKLTAYLPAMSEDDEDCYGNYDNLLSQFGCMQVSSSSSSHSLSASDTGLPQRSGSNIEQYIHDLDSNSFELDLQFSEDEKRLLLEKQAGGNPWHQFVENNLILKMGPVDKRKGLFARRRQLLLTEGPHLYYVDPVNKVLKGEIPWSQELRPEAKNFKTFFVHTPNRTYYLMDPSGNAHKWCRKIQEVWRQRYQSHPDAAVQ
notes: It co-precipitated with Flag-PKN3 from cell lysates
As to B1, the binding result is “binds”.
